From patent US7320863B2, “Thyroid sodium/iodide symporter and nucleic acid encoding same” (Albert Einstein College of Medicine of Yeshiva University, priority 1996, dated 2008)

Substrate: I
Experiment: cells, lysate or membranes
Conditions: other: initial velocity rates at 2 min, iodide 1.25 to 250 μM, oocytes 60 h after injection; 37.0 °C

B1: rat sodium/iodide symporter (Rattus norvegicus) (protein)
chain: MEGAEAGARATFGAWDYGVFATMLLVSTGIGLWVGLARGGQRSADDFFTGGRQLAAVPVGLSLAASFMSAVQVLGVPAEAARYGLKFLWMCAGQLLNSLLTAFLFLPIFYRLGLTSTYQYLELRFSRAVRLCGTLQYLVATMLYTGIVIYAPALILNQVTGLDIWASLLSTGIICTLYTTVGGMKAVVWTDVFQVVVMLVGFWVILARGVILLGGPRNVLSLAQNHSRINLMDFDPDPRSRYTFWTFIVGGTLVWLSMYGVNQAQVQRYVACHTEGKAKLALLVNQLGLFLIVASAACCGIVMFVYYKDCDPLLTGRISAPDQYMPLLVLDIFEDLPGVPGLFLACAYSGTLSTASTSINAMAAVTVEDLIKPRMPGLAPRKLVFISKGLSFIYGSACLTVAALSSLLGGGVLQGSFTVMGVISGPLLGAFTLGMLLPACNTPGVLSGLAAGLAVSLWVAVGATLYPPGEQTMGVLPTSAAGCTNDSVLLGPPGATNASNGIPSSGMDTGRPALADTFYAISYLYYGALGTLTTMLCGALISYLTGPTKRSSLGPGLLWWDLARQTASVAPKEDTATLEESLVKGPEDIPAVTKKPPGLKPGAETHPLYLGHDVETNL
Question: B1 was tested. Which Km did it give?
Answer: 36 µM
